Experimental data reported in patent US20240344028A1, “Serum-free media for producing adipocytes for animal consumption” (Mosa Meat B.V., priority 2021, published 2024).

Test system: Adipogenic progenitor cells
Test: 2D adipogenic differentiation with DMAD components removed or at changed concentration
Assay type: cell-based, bovine
Conditions: single component removed from DMAD
Description: At 90% confluence, proliferated MSCs were trypsinized and seeded in a 96-well collagen coated cell culture plate at 30,000 cells/cm^2 in SF-PM. After 24 hours, adipogenesis was induced by changing SF-PM to DMAD (the serum-free differentiation medium as depicted in Example 1), which was maintained on the cells for a period of 12 days with media changes every 3-4 days. As a control differentiation medium (ctrl), DMEM/F12 with 3% FBS was supplemented with 4 conventional adipogenic inducers (IBMX (Sigma Aldrich-15879; 0.5 mM), dexamethasone (Sigma Aldrich-D4902; 10 μM), rosiglitazone (Sigma Aldrich-R2408; 5 μM) and insulin (Peprotech-10-365; 10 μM)). All 4 inducers were used for the first 3 days of culture and only insulin and rosiglitazone were used for the remaining 9 days.
Cells were fixed on days 6 and 12 with 4% PFA for 20 minutes at room temperature and washed twice with PBS. Cells were then stained with Hoechst (ThermoFisher 493/503, 1:2000) and BODIPY (Sigma Aldrich 345880, 1:1000) in PBS for 30 minutes. Adipogenic differentiation was quantified using the ImageXPress Pico High Content Analyser (HCA; Molecular devices). The parameters measured were total area of lipid, lipid droplet average area and percentage of positive cells. […]

B1: BMP4: Recombinant Human BMP-4 (E. coli derived), 120-05ET from Peprotech (protein, UniProt P12644 293-408, looked up)
Bone morphogenetic protein 4: SPKHHSQRARKKNKNCRRHSLYVDFSDVGWNDWIVAPPGYQAFYCHGDCPFPLADHLNSTNHAIVQTLVNSVNSSIPKACCVPTELSAISMLYLDEYDKVVLKNYQEMVVEGCGCR
In the case of B1, the “effect of removing the component from DMAD on percentage of positive cells and total lipid area” value is reported as “significantly decreased differentiation”.
